Km data for 1 protein are collected here from paper PMC5440690, “Sirt1 carboxyl-domain is an ATP-repressible domain that is transferrable to other proteins” (Nature Communications, 2017).

Substrate in this data set: NC(=O)c1ccc[n+]([C@@H]2O[C@H](COP(=O)([O-])OP(=O)(O)OC[C@H]3O[C@@H](n4cnc5c(N)ncnc54)[C@H](O)[C@@H]3O)[C@@H](O)[C@H]2O)c1
Nature of the data set: steady-state deacetylation kinetics (Km). Format: biochemical, Mus musculus.

B1: Sirt1 (Mus musculus) (protein)
chain: ADEVALALQAAGSPSAAAAMEAASQPADEPLRKRPRRDGPGLGRSPGEPSAAVAPAAAGCEAASAAAPAALWREAAGAAASAEREAPATAVAGDGDNGSGLRREPRAADDFDDDEGEEEDEAAAAAAAAAIGYRDNLLLTDGLLTNGFHSCESDDDDRTSHASSSDWTPRPRIGPYTFVQQHLMIGTDPRTILKDLLPETIPPPELDDMTLWQIVINILSEPPKRKKRKDINTIEDAVKLLQECKKIIVLTGAGVSVSCGIPDFRSRDGIYARLAVDFPDLPDPQAMFDIEYFRKDPRPFFKFAKEIYPGQFQPSLCHKFIALSDKEGKLLRNYTQNIDTLEQVAGIQRILQCHGSFATASCLICKYKVDCEAVRGDIFNQVVPRCPRCPADEPLAIMKPEIVFFGENLPEQFHRAMKYDKDEVDLLIVIGSSLKVRPVALIPSSIPHEVPQILINREPLPHLHFDVELLGDCDVIINELCHRLGGEYAKLCCNPVKLSEITEKPPRPQKELVHLSELPPTPLHISEDSSSPERTVPQDSSVIATLVDQATNNNVNDLEVSESSCVEEKPQEVQTSRNVENINVENPDFKAVGSSTADKNERTSVAETVRKCWPNRLAKEQISKRLEGNQYLFVPPNRYIFHGAEVYSDSEDDVLSSSSCGSNSDSGTCQSPSLEEPLEDESEIEEFYNGLEDDTERPECAGGSGFGADGGDQEVVNEAIATRQELTDVNYPSDKS
notes: recombinant WT Sirt1
For the protein B1, the Michaelis-Menten constant (Km) was determined as 203.08 ± 13.24 µM.
